Measurements taken from article PMC10516904, “Dual enzyme-powered chemotactic cross β amyloid based functional nanomotors” (Nature Communications, 2023).

Molecular target: the molecule itself
Test: TEM, SEM, AFM, CD and FTIR of the assembled peptide; peptide assembled in 40% acetonitrile/water with 0.1% TFA for a month

B1: Ac-KLVFFAL-CONH2 (peptide)
peptide: Ac-KLVFFAL-NH2
notes: also called Ac-KL nanotubes; amylobots (chassis); source: short nanotubes by probe sonication
binding result: binds
